Measurements from article PMC4006906 (PLoS Pathogens, 2014).

Target: T1, A/California/04/2009 (H1CA0409) recombinant HA (Influenza A virus, A/California/04/2009 …, UniProt C3W5S1, strain)
T1 construct: source: supplied by BEI Resources
Assay: ELISA
Conditions: both partners purified

B1: F10 scFv (wild type) (scFv, V domains shown)
VH: QVQLVQSGAEVKKPGSSVKVSCTSSEVTFSSFAISWVRQAPGQGLEWLGGISPMFGTPNYAQKFQGRVTITADQSTRTAYMDLRSLRSEDTAVYYCARSPSYICSGGTCVFDHWGQGTLVTVSS
VL: QPGLTQPPSVSKGLRQTATLTCTGNSNNVGNQGAAWLQQHQGHPPKLLSYRNNDRPSGISERFSASRSGNTASLTITGLQPEDEADYYCSTWDSSLSAVVFGGGTKLTVL
notes: also called F10 wt; construct #1; source: E. coli BL21 (DE3), purified (streptactin beads)
- binding result: binds
